B1: unnamed (peptide)
chain: PPPPPPPPPPLPQSL
B2: unnamed (peptide)
chain: PPLPRAPPVPPATFE
B3: unnamed (peptide)
chain: VNIPSPSSSPPPIPK

What follows are binders tested against T1, Sla1-2, P32790 (assay: SPOT array). Conditions: median of control spots 712.
T1 sequence (P32790 60-140, looked up): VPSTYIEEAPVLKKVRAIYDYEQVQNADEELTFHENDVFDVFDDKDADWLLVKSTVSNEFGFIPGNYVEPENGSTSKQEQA
An SPOT intensity of 0 was found for B1 in this work. An SPOT intensity of 1 was found for B2 in this work. An SPOT intensity of 0 was found for B3 in this work.

The binders below were run against T2, Sla1-3, P32790 (assay: SPOT array). Conditions: median of control spots 5475.
T2 sequence (P32790 344-424, looked up): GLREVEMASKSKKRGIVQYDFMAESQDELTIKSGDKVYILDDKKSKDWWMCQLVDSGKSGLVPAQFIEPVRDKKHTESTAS
An SPOT intensity of 6 was found for B1 in this work. An SPOT intensity of 1 was found for B2 in this work. An SPOT intensity of 3 was found for B3 in this work.

What follows are binders tested against Bem1-1, P29366 (assay: SPOT array). Conditions: median of control spots 4282.
Sequence of Bem1-1, P29366 (P29366 55-141): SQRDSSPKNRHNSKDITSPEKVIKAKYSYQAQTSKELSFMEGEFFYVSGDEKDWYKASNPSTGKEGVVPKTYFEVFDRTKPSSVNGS
An SPOT intensity of 0 was found for B1 in this work. An SPOT intensity of 2 was found for B2 in this work. An SPOT intensity of 0 was found for B3 in this work.

These binders were tested against T3, Fus1, P11710 (assay: SPOT array). Conditions: median of control spots 1200.
T3 sequence (P11710 432-512, looked up): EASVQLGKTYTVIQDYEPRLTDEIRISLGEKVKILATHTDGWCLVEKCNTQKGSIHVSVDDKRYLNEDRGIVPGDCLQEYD
An SPOT intensity of 0 was found for B1 in this work. An SPOT intensity of 0 was found for B2 in this work. An SPOT intensity of 0 was found for B3 in this work.

What follows are binders tested against T4, Cdc25, P04821 (assay: SPOT array). Conditions: median of control spots 969.
T4 sequence (P04821 50-136, looked up): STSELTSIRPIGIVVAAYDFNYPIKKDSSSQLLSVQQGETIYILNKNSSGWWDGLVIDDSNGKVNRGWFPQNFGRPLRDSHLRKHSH
An SPOT intensity of 0 was found for B1 in this work. An SPOT intensity of 1 was found for B2 in this work. An SPOT intensity of 0 was found for B3 in this work.

What follows are binders tested against T5, Hse1, P38753 (assay: SPOT array). Conditions: median of control spots 1727.
T5 sequence (P38753 208-285, looked up): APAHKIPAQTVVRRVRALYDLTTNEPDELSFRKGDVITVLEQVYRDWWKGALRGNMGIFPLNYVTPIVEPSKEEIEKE
An SPOT intensity of 0 was found for B1 in this work. An SPOT intensity of 0 was found for B2 in this work. An SPOT intensity of 8 was found for B3 in this work.

The binders below were run against T6, Bzz1-2, P38822 (assay: SPOT array). Conditions: median of control spots 4538.
T6 sequence (P38822 568-633, looked up): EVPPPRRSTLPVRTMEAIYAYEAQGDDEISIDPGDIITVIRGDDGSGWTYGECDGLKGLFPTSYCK
An SPOT intensity of 2 was found for B1 in this work. An SPOT intensity of 4 was found for B2 in this work. An SPOT intensity of 0 was found for B3 in this work.

Each binder was assayed against T7, Cyk3, Q07533 (assay: SPOT array). Conditions: median of control spots 1451.
T7 sequence (Q07533 1-83, looked up): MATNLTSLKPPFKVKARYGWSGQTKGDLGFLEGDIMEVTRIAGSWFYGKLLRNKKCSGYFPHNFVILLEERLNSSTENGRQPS
An SPOT intensity of 1 was found for B1 in this work. An SPOT intensity of 0 was found for B2 in this work. An SPOT intensity of 0 was found for B3 in this work.

The binders below were run against T8, Bud14, P27637 (assay: SPOT array). Conditions: median of control spots 956.
T8 sequence (P27637 247-328, looked up): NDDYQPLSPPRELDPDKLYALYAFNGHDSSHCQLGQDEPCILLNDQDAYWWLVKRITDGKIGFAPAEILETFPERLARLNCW
An SPOT intensity of 0 was found for B1 in this work. An SPOT intensity of 0 was found for B2 in this work. An SPOT intensity of 1 was found for B3 in this work.

These binders were tested against T9, Pin3, Q06449 (assay: SPOT array). Conditions: median of control spots 2171.
T9 sequence (Q06449 53-122, looked up): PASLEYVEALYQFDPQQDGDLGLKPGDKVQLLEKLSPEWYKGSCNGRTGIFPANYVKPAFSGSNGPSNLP
An SPOT intensity of 0 was found for B1 in this work. An SPOT intensity of 0 was found for B2 in this work. An SPOT intensity of 0 was found for B3 in this work.

The binders below were run against T10, Nbp2, Q12163 (assay: SPOT array). Conditions: median of control spots 357.
T10 sequence (Q12163 103-180, looked up): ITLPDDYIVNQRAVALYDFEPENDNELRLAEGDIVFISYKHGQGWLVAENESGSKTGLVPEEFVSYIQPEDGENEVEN
An SPOT intensity of 0 was found for B1 in this work. An SPOT intensity of 2 was found for B2 in this work. An SPOT intensity of 2 was found for B3 in this work.

The binders below were run against T11, Boi1, P38041 (assay: SPOT array). Conditions: median of control spots 1162.
T11 sequence (P38041 1-86, looked up): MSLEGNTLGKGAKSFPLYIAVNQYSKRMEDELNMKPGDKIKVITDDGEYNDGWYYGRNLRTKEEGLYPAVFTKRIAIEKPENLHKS
An SPOT intensity of 0 was found for B1 in this work. An SPOT intensity of 1 was found for B2 in this work. An SPOT intensity of 0 was found for B3 in this work.

The binders below were run against T12, Myo5, Q04439 (assay: SPOT array). Conditions: median of control spots 471.
T12 sequence (Q04439 1072-1160, looked up): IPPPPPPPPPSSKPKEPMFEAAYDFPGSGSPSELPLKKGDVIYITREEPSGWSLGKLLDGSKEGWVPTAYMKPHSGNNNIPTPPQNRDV
An SPOT intensity of 263 was found for B1 in this work. An SPOT intensity of 137 was found for B2 in this work. An SPOT intensity of 529 was found for B3 in this work.

The binders below were run against Sho1, P40073 (assay: SPOT array). Conditions: median of control spots 1148.
Sequence of Sho1, P40073 (P40073 287-367): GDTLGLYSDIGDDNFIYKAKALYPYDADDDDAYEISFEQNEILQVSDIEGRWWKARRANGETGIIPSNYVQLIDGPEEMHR
An SPOT intensity of 0 was found for B1 in this work. An SPOT intensity of 9 was found for B2 in this work. An SPOT intensity of 0 was found for B3 in this work.

Each binder was assayed against Bem1-2, P29366 (assay: SPOT array). Conditions: median of control spots 4347.
Sequence of Bem1-2, P29366 (P29366 139-227): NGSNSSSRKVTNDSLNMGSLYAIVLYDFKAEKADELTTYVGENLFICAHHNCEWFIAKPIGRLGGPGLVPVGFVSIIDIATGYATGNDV
An SPOT intensity of 1 was found for B1 in this work. An SPOT intensity of 59 was found for B2 in this work. An SPOT intensity of 49 was found for B3 in this work.

What follows are binders tested against T13, Lsb3, P43603 (assay: SPOT array). Conditions: median of control spots 406.
T13 sequence (P43603 385-451, looked up): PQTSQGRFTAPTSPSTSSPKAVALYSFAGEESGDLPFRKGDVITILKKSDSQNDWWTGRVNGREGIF
An SPOT intensity of 0 was found for B1 in this work. An SPOT intensity of 0 was found for B2 in this work. An SPOT intensity of 0 was found for B3 in this work.

What follows are binders tested against T14, Lsb1, P53281 (assay: SPOT array). Conditions: median of control spots 388.
T14 sequence (P53281 45-122, looked up): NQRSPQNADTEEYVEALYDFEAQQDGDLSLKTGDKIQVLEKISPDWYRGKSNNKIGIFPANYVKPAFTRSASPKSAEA
An SPOT intensity of 0 was found for B1 in this work. An SPOT intensity of 7 was found for B2 in this work. An SPOT intensity of 0 was found for B3 in this work.

The binders below were run against T15, Abp1, P15891 (assay: SPOT array). Conditions: median of control spots 935.
T15 sequence (P15891 535-592, looked up): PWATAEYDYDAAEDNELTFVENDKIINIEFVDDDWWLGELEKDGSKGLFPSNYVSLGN
An SPOT intensity of 0 was found for B1 in this work. An SPOT intensity of 27 was found for B2 in this work. An SPOT intensity of 1 was found for B3 in this work.

Each binder was assayed against T16, Bzz1-1, P38822 (assay: SPOT array). Conditions: median of control spots 4446.
T16 sequence (P38822 478-572, looked up): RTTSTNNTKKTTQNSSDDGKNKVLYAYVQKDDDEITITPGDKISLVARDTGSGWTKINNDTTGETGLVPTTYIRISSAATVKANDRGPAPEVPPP
An SPOT intensity of 5 was found for B1 in this work. An SPOT intensity of 2 was found for B2 in this work. An SPOT intensity of 1 was found for B3 in this work.

What follows are binders tested against Rvs167, P39743 (assay: SPOT array). Conditions: median of control spots 2707.
Sequence of Rvs167, P39743 (P39743 419-482): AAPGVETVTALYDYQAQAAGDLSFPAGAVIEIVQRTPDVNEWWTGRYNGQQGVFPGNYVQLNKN
An SPOT intensity of 0 was found for B1 in this work. An SPOT intensity of 0 was found for B2 in this work. An SPOT intensity of 0 was found for B3 in this work.

These binders were tested against Myo3, P36006 (assay: SPOT array). Conditions: median of control spots 468.
An SPOT intensity of 275 was found for B1 in this work. An SPOT intensity of 269 was found for B2 in this work. An SPOT intensity of 464 was found for B3 in this work.

The binders below were run against T17, Lsb4, P32793 (assay: SPOT array). Conditions: median of control spots 397.
T17 sequence (P32793 402-468, looked up): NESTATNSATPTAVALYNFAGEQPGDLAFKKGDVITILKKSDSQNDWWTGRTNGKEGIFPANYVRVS
An SPOT intensity of 0 was found for B1 in this work. An SPOT intensity of 0 was found for B2 in this work. An SPOT intensity of 0 was found for B3 in this work.

The binders below were run against T18, Boi2, P39969 (assay: SPOT array). Conditions: median of control spots 1161.
T18 sequence (P39969 32-116, looked up): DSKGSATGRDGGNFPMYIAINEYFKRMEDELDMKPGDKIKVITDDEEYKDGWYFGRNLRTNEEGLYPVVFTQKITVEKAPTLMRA
An SPOT intensity of 0 was found for B1 in this work. An SPOT intensity of 0 was found for B2 in this work. An SPOT intensity of 0 was found for B3 in this work.

The binders below were run against T19, Pex13, P80667 (assay: SPOT array). Conditions: median of control spots 1341.
T19 sequence (P80667 295-386, looked up): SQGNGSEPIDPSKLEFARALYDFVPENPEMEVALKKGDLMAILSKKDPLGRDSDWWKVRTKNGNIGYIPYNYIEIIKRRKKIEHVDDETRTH
An SPOT intensity of 28 was found for B1 in this work. An SPOT intensity of 14 was found for B2 in this work. An SPOT intensity of 0 was found for B3 in this work.

What follows are binders tested against T20, Bbc1, P47068 (assay: SPOT array). Conditions: median of control spots 796.
T20 sequence (P47068 1-78, looked up): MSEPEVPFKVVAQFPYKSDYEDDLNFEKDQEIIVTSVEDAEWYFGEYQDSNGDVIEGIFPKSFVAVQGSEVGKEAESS
An SPOT intensity of 0 was found for B1 in this work. An SPOT intensity of 3 was found for B2 in this work. An SPOT intensity of 0 was found for B3 in this work.

What follows are binders tested against GST (assay: SPOT array). Conditions: median of control spots 978.
An SPOT intensity of 1 was found for B1 in this work. An SPOT intensity of 0 was found for B2 in this work. An SPOT intensity of 0 was found for B3 in this work.

What follows are binders tested against T21, Hof1, Q05080 (assay: SPOT array). Conditions: median of control spots 4086.
T21 sequence (Q05080 590-669, looked up): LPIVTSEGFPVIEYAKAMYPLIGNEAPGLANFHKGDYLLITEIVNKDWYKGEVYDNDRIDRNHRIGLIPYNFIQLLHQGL
An SPOT intensity of 5 was found for B1 in this work. An SPOT intensity of 183 was found for B2 in this work. An SPOT intensity of 0 was found for B3 in this work.

Source: article PMC2756588
